Measured values as given in article PMC3684052 (Molecular cell, 2013).
No end group written: not given here.

T1: His-ICAP1 (49–200), wild type (human, UniProt O14713 49-200)
T1 sequence (looked up): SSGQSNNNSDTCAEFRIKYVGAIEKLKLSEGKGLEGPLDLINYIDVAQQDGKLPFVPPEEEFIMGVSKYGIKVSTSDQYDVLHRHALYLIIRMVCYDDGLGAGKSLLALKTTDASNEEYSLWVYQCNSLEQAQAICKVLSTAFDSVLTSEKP

T2: His-ICAP1 (49–200) L135A/I138A/I139A (human, UniProt O14713 49-200, L135A | I138A | I139A)
T2 sequence (looked up): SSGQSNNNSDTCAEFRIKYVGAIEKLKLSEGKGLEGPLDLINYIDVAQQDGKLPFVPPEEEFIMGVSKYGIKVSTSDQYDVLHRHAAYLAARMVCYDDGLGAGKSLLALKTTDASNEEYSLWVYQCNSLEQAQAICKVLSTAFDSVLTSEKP

T3: His-ICAP1 (49–200) C184D (human, UniProt O14713 49-200, C184D)
T3 sequence (looked up): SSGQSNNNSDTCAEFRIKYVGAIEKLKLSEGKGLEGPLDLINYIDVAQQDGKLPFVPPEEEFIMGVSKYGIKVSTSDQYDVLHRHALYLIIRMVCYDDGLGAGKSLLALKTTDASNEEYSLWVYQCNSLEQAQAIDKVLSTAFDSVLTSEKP

T4: His-ICAP1 (49–200) I89R (human, UniProt O14713 49-200, I89R)
T4 sequence (looked up): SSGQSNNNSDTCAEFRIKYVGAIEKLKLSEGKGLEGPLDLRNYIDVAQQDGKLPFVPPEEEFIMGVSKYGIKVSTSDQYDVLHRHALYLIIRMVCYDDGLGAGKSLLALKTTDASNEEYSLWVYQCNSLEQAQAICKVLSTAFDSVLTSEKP

T5: His-ICAP1 (49–200) D93A/Q96A (human, UniProt O14713 49-200, D93A | Q96A)
T5 sequence (looked up): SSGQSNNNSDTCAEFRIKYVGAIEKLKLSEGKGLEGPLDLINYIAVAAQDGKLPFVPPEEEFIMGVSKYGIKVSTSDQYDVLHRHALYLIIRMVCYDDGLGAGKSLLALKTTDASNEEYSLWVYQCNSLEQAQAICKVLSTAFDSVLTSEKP


Tests used:
Assay in all cases: pull-down
[1] = biological target: T1, His-ICAP1 (49–200), wild type
[2] = biological target: T2, His-ICAP1 (49–200) L135A/I138A/I139A
[3] = biological target: T3, His-ICAP1 (49–200) C184D
[4] = biological target: T4, His-ICAP1 (49–200) I89R
[5] = biological target: T5, His-ICAP1 (49–200) D93A/Q96A

binding result [1]	binding result [2]	binding result [3]	binding result [4]	binding result [5]	Binder
binds					QSHFIPDLFRPSDLERIKTNVINPAYATE (domain or fragment, human, UniProt O00522 170-198, looked up) [GST-KRIT1 (residues 170–198) A176D/P182D]
binds	binds	binds	binds	binds	QSHFIPALFRPSPLERIKTNVINPAYATE (domain or fragment, human, UniProt O00522 170-198, looked up) [GST-KRIT1 (residues 170–198), wild type]
binds			binds	binds	KLLMIIHDRREFAKFEKEKMNAKWDTGENPIYKSAVTTVVNPKYEGK (domain or fragment, UniProt P05556 752-798, looked up, also: GST fusion) [GST-integrin β1 fusion protein (residues 752 to 798), wild type]
binds					QSHFIPALFAPSPLEAIKTNVINPAYATE (domain or fragment, human, UniProt O00522 170-198, looked up) [GST-KRIT1 (residues 170–198) R179A/R185A]
binds					QSHFIPALFRPSPLERIKTNVIAPAAATE (domain or fragment, human, UniProt O00522 170-198, looked up) [GST-KRIT1 (residues 170–198) N192A/Y195A]
